# Reference: patent US20150351390A1, “COMPOSITIONS AND METHODS FOR AUXIN-ANALOG CONJUGATION” (PIONEER HI-BRED INTERNATIONAL, INC., priority 2012, published 2015)
# B1: ZmACF88044: GH3 protein, accession ACF88044 (protein)
# chain: MATYEDLQPYIRRIADGDRSPILSGHPVSEFLTSSGTSAGERKLMPTIEDELNRRQLLYSLQMPVMNLYVPGMDKGKALHFLFVKSETKTPGGLAARPVLTSYYKSNHFKNRPFDAYNNYTSPTAAILCADAFQSMYAQMLCGLCQRQDVLRVGAVFASGLLRAIRFLQLNWEQLAEDIEAGSLTPRVTDPSVREAVAGILRADPELAALVRSECSKGDWAGIITRIWPSTKYLDVIVTGAMAQYIPTLKYYSGGLPMACTMYASSECYFGLNLRPMCDPSEVSYTLMPNMCYFEFLPMDSAAASGGDASQLVDLARVEVGREYELVITTYAGLNRYRVGDVLQVTGFHNSAPQFRFVRRKNVLLSIESDKTDEAELQRAVERASALLRPHGAAVVEYTSQAYTKSIPGHYVIYWELLAKGPAGGAAVGEGTLERCCLEMEEALNTVYRQSRVADGSIGPLEIRVVRPGTFEELMDYAISRGASINQYKVPRCVTFPPIIELLDSRVVSSHFSPALPHWTPGQRSDSD
# modifications: Zea mays
# B2: AtGH3-7: GH3 protein, accession AAC00604 (protein, listed as Arabidopsis thaliana)
# chain: MSLTSDLSEKSSDKMKVLEDLTSNVTQIQDNVLEEILTLNANTNYLQKFFLGSFDKESFKKNVPVVTYEDVKPYIERVVNGEPSNVISARPITGFVLSTGTSGGAQKMMPWNEKYLDNLTFMYDLRMHIISNNVKDVEKGKAMMFYFTKLESITPSGLPARVASSSYLKSNYFKNRPSNWYYSYTSPDEVTLCPDNKQNLYCHLLCGLVQRNEVTRMGSIFASVMVRAIKFLEDSWEELCSNIRSGQLSEWITDIGCRDSVSLVLGGPHPEAADTIEQICNQKCWKGIITRLWPKAKYIETIVTGSMVQYVPTLNYYSNNMLPLISTIYASSETQFGLNLNPMCKPEDVSYTFMPNVSYFEFIPVDGDKNDVVDLADVKLGCCYEAVVTNFSGLYRIRVGDILVVTGFHNKAPQFRFIRRDNVVLSIDLDKTNEDDLFKAVNNAKLTLDSSHLMLIDFTSYADISTIPGHYVVYWEVKNKNEDKKSKKHIELKEETFSECCLLMEDSLDSVYKICRFKEESVGPLEIKVVRQGTFDSLMDYFISQGASIGQYKTPRCIKSGKALEVLEENVVATFFST
# B3: AtGH3-12: GH3 protein, accession Q9LYU4 (protein, listed as Arabidopsis thaliana)
# chain: MKPIFDINETFEKQLKDLTSNVKSIQDNLLEEIITPNTKTEYLQRFLIDRFDKELFKKNVPIVSYEDIKPYLDRVVNGESSDVISARTITGFLLSSGTSGGAQKMMPWNNKYLDNLTFIYDLRMQVITKHVKGVEEGKGMMFLFTKQESMTPSGLPARVATSSYFKSDYFKNRPSNWYYSYTSPDEVILCPNNTESLYCHLLCGLVQRDEVVRTGSIFASVMVRAIEVLKNSWEELCSNIRSGHLSNWVTDLGCQNSVSLVLGGPRPELADTIEEICNQNSWKGIVKRLWPNTKYIETVVTGSMGQYVPMLNYYCNDLPLVSTTYGSSETTFGINLDPLCKPEDVSYTFMPNMSYFEFIPMDGGDKNDVVDLEDVKLGCTYEPVVTNFAGLYRMRVGDIVLVTGFYNNAPQFKFVRRENVVLSIDSDKTNEEDLFKAVSQAKLVLESSGLDLKDFTSYADTSTFPGHYVVYLEVDTKEGEEKETAQFELDEEALSTCCLVMEESLDNVYKRCRFKDGSIGPLEIRVVRQGTFDSLMDFFISQGASTGQYKTPRCIKSGKALQVLETCVVAKFFSI
# B4: AtGH3-19: GH3 protein, accession AAG60122 (protein, listed as Arabidopsis thaliana)
# chain: MSLSVELKDLEVLTTNAKQIQDDVLKEILTLNANTEYLKRFLDGSSDKELFKKNVPVVSYNDVKPYIERVANGEPSDVISGGTITRFVQSTGTSGGIHKIFPVNDKYIENLGYLLAVSSLITSNDKVDEKGKKMAFLYNRLESKTPSGLALSSSFTSYFMSDYFKNRSSKCNSEYTSPDQVILCPDNNQSVYCHLLCGLSQREKVVGVSATFAHALIKAINALQIYWKELSSNIRSGHVSEWITDLDCKNAVSAILGGPDPELADVIEQECSHKSWEGIITRLWPKAKFIECIVTGQMAQYIPTLDFYSNKLPIVSMVYGSSESIFGVNVDPLSKPQDVSYTFLPNISYFEFLPIDHEEDMNTIVDLVGVKLGCYYETVVTSYFGLHRYLIGDILQVTGFYNNTPQFRFVRRKNIVLSVNSEATTEQDILKGLASATLVLESSNSMLTGFTCYADISSFPGHYVFYWELKAKDVDDVVELDENVLEECCYALEESFDALYKRLRSKEGSIGALEIKVVQQGTFDSLMEYFISKGGSVAQYKTPMCINSSETLAVLEDKVIARFYSQKSPPLNL
# B5: AIGH3-14: GH3 protein, accession EFH47823 (protein, listed as Arabidopsis lyrata)
# chain: MLPKFDPTDQKACLSLLEDVTTNVKQIQDSVLEAILSRNARTEYLSGFLNGQVDKQSFKKNLPVVTYEDIRPYIDRIANGEPSDLICDRPISVLLTSSGTSGGVPKLIPLTTDELEQRISFASLYRPLLYKYVEGIRERKSFMLYFVTRESETASGILVRTMITCVLKSLKPSNSFIWDQTQISPHGISTCSDTTQSMYCQLLCGLLQRDNVGRLGAPFASSFLKIIKFLEDHWPEFCSNIRTGRLSDWITDPQCVSGIGKFLTAPDPELASLIEQECSQTSWEAIVKRLWPKAKCIEAIVTGTMAQYIPLLEFYSGGLPVISTFYGSSECFIGLNLNPLSKPSDVSYTIIPCMAYFEFLEVGKDYQETGHDPAEKPVVVDLVDVKIGHDYEPVVTTFAGLYRYRLGDVLRVTGFYNNAPQFHFVGRQKVVLSIDMDKTYEEDLLKAVTNAKLLLEPHDLMLMDFTSRVDSSSFPGHYVLYWELGSKVKDAKLELDPNVLEECCFTIEESLDAVYRKGRKNDKNIGPLEIKVVKSGAFEELMNLFLSRGSSVSQYKTPRSVTNEEAVKILESNVVSEFLSRKTPSWELHELYSNR
# Test: LC-MS assay of GH3 conjugation of 2,4-D with Asp or Glu
# Assay type: biochemical
# Conditions: conjugation of 2,4-D with Asp by recombinant GH3 protein; 2,4-D-Asp product by LC-MS; 5 mM 2,4-D substrate
# Protocol: (§1) To detect and monitor the formation of acyl conjugates with 2,4-D or dicamba, a sensitive LC-MS method was developed using the respective amino acid conjugate standards. […] The reaction was performed at 30° C., 105 rpm, for 3 hours in buffer containing 20 mM Tris-HCl (pH 8.0), 5 mM MgCl2, 5 mM auxin (IAA, 2,4-D or dicamba), 5 mM ATP, 5 mM Asp or Glu, 1 mM DTT and 44 to 164 μg/mL purified GH3 protein in 100 μL reaction. After 3 hours of reaction, 400 μL 100% MeOH was added to the reaction mixture for protein precipitation. The supernatant was diluted 20× in water and then analyzed by LC-MS (AB Sciex 4000 QTrap coupled with Shimadzu Nexera UHPLC) using a Phenomenex Luna 3 μm Phenyl-Hexyl (00B-4256-Y0) column. The concentration of the conjugates was calculated based on the standards. Kinetic parameters were estimated by fitting initial velocity values to the Michaelis-Menten equation.
# (§2) The GH3 superfamily conjugase activity analysis of IAA, 2,4-D or dicamba with Asp or Glu was done using LC-MS to analyze the final conjugate products as described in Example 1. Protein sequences of GH3 homologs (Table 3) were obtained from public databases (NCBI, http://www.ncbi.nlm.nih.gov/) by Blast analysis of AtGH3.17 protein sequence (accession # Q9FZ87). Coding sequences were designed for optimal expression in E. coli based on the protein sequences and synthesized. Synthesized coding sequences along with N-term his-tag coding sequences were cloned into a pET24a-based E. coli expression vector. The E. coli expression vectors were transformed into OverExpress C41(DE3) cells (Lucigen) for protein expression. Recombinant E. coli strains were inoculated into 5 ml LB media supplemented with 40 mg/L kanamycin and cultured overnight at 37° C. The overnight culture (0.5 mL) was inoculated into 50 mL LB medium plus 40 mg/L kanamycin and grown at 30° C. until OD600 reached 0.6. The cultures were induced with 0.2 mM IPTG at 16° C., 230 rpm overnight. Cells were harvested by centrifugation at 7,000 rpm for 10 mins. The cell pellet from 50 mL of cell culture was frozen and thawed twice and then lysed in 800 μL lysis buffer A (150 mM NaCl, 50 mM Tris-HCl pH 8.0, 5 mM MgCl2, 10% glycerol) plus 20 mM imidazole, 1 mM DTT, 0.2 mg/ml lysozyme, 1/200 protease inhibitor cocktail (EMD set3, EDTA free) and 1/2000 endonuclease. Lysate was then centrifuged at 13,000 rpm for 30 min at 4° C. Supernatant was loaded onto 200 μL Ni-NTA columns pre-equilibrated with buffer A with 20 mM imidazole at 4° C. Each column was then washed with (1) 2×800 μL of buffer A with 10 mM imidazole, (2) 2×800 μL of buffer A with 20 mM imidazole and (3) 2×200 μL of buffer A with 50 mM imidazole. Protein was eluted with 200 μL of buffer A with 250 mM imidazole. The concentration was measured by Bradford assay. Purified protein was used in conjugation reaction assays as described in example 1.
row,Molecule,"kcat (hrs−1) 2,4-D-Asp [h⁻¹]"
1,B1,0.000
2,B2,0.000
3,B3,0.002
4,B4,0.014
5,B5,0.140

# Same assay, conditions: conjugation of 2,4-D with Glu by recombinant GH3 protein; 2,4-D-Glu product by LC-MS; 5 mM 2,4-D substrate
row,Molecule,"kcat (hrs−1) 2,4-D-Glu [h⁻¹]"
1,B1,0.033
2,B2,0.000
3,B3,0.026
4,B4,0.048
5,B5,0.322

# Same assay, conditions: result in words
row,Molecule,"2,4-D conjugation activity with Asp or Glu"
1,B1,"2,4-D conjugases"

# Test: LC-MS assay of GH3 conjugation of IAA with Asp or Glu
# Assay type: biochemical
# Conditions: conjugation of IAA with Asp by recombinant GH3 protein; IAA-Asp product by LC-MS
# Protocol: as §1, §2
row,Molecule,kcat (hrs−1) IAA-Asp [h⁻¹]
1,B1,0.000
2,B2,0.000
3,B3,0.000
4,B4,0.000
5,B5,0.000

# Same assay, conditions: conjugation of IAA with Glu by recombinant GH3 protein; IAA-Glu product by LC-MS
row,Molecule,kcat (hrs−1) IAA-Glu [h⁻¹]
1,B1,0.000
2,B2,5.361
3,B3,10.015
4,B4,3.177
5,B5,1.756

# Same assay, conditions: result in words
Molecule,IAA conjugation activity with Asp or Glu,Conjugation of Glu to IAA
B1,IAA-inactive,–
B2,–,can also conjugate Glu to IAA
B3,–,can also conjugate Glu to IAA
B4,–,can also conjugate Glu to IAA
B5,–,can also conjugate Glu to IAA
